Earlier results in PMC5580235.
Like-named read-outs stand apart in the source and are kept apart here. Blank lines part the entries; values can stand above or below the substance they belong to.

Columns and labels:
ICAM-1 (Homo sapiens) [1] = target: ICAM-1 (Homo sapiens) (UniProt P05362)
ICAM-1 (Homo sapiens) [2] = target: ICAM-1 (Homo sapiens) (UniProt P05362); remark: listed apart in the source
ICAM-1 (Homo sapiens) [3] = target: ICAM-1 (Homo sapiens) (UniProt P05362); remark: listed apart in the source

Chain of ICAM-1 (Homo sapiens) (P05362 28-480): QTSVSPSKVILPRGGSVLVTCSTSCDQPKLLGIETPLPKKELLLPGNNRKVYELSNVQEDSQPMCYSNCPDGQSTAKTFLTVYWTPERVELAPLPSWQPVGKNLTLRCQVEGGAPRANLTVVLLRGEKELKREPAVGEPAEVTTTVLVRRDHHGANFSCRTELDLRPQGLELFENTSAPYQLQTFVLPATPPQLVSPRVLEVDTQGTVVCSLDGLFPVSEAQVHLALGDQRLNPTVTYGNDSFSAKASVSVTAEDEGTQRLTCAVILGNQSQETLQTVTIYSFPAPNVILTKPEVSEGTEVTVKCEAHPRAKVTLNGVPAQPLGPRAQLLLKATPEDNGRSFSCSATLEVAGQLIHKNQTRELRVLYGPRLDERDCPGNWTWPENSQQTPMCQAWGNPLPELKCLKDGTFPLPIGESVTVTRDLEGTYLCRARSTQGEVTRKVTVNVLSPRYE
Chain of LFA-1 (low affinity form) (P20701 26-1090): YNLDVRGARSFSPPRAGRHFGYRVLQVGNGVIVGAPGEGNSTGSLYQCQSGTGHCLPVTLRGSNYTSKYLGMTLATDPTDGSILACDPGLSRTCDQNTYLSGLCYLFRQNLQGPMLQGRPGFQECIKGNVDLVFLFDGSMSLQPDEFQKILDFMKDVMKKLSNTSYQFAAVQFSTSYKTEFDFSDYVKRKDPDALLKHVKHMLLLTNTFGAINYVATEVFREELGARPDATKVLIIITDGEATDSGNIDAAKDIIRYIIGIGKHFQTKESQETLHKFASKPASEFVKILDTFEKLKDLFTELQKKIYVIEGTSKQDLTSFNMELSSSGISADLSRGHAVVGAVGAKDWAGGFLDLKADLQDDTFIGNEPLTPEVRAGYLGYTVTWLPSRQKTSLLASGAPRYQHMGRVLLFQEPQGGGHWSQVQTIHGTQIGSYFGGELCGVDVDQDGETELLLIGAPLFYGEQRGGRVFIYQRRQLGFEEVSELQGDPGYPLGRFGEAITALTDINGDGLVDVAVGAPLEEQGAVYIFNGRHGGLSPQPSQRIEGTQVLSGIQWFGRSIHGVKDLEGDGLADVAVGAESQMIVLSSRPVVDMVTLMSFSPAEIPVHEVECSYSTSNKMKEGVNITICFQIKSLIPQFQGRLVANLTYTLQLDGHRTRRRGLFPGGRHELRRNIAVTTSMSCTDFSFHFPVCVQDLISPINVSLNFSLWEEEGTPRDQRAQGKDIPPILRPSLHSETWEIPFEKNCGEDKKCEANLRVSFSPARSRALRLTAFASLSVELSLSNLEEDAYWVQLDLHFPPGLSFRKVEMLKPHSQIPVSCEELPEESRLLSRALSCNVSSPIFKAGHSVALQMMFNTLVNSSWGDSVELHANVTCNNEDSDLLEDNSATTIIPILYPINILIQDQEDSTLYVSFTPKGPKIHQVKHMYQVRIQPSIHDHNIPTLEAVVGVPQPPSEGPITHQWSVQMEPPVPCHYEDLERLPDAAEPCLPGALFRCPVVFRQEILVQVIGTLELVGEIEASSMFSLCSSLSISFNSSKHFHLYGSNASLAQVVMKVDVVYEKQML
Chain of LFA-1 (low affinity form) (P05107 23-700, further chain): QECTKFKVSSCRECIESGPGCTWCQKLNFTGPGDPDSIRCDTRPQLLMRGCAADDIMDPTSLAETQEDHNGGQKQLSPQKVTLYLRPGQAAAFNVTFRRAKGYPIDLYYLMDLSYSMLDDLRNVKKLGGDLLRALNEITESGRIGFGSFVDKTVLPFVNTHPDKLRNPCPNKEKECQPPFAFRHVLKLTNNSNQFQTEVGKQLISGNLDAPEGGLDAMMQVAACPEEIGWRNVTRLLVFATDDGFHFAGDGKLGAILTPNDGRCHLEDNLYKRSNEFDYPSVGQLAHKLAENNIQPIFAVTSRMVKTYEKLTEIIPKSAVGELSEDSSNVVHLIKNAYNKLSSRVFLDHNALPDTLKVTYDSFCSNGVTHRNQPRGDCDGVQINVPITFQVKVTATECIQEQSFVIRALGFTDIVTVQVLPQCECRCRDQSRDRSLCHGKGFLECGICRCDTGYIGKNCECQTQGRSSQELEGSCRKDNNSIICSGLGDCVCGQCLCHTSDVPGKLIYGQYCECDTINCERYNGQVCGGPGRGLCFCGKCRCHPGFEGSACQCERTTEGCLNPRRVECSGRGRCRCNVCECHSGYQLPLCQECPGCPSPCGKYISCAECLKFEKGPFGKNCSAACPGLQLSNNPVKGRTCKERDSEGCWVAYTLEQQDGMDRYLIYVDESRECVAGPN
Chain of LFA-1 (intermediate affinity form) (P20701 26-1090): as the sequence (P20701 26-1090) above
Chain of LFA-1 (intermediate affinity form) (P05107 23-700, further chain): as the sequence (P05107 23-700, further chain) above
Chain of LFA-1 (high affinity form) (P20701 26-1090): as the sequence (P20701 26-1090) above
Chain of LFA-1 (high affinity form) (P05107 23-700, further chain): as the sequence (P05107 23-700, further chain) above

Kd (ICAM-1 (Homo sapiens) [1]): 15 µM
Substance: LFA-1 (intermediate affinity form) (from UniProt P20701)

Kd (ICAM-1 (Homo sapiens) [2]): 0.15 µM
Substance: LFA-1 (high affinity form) (from UniProt P20701)

Kd (ICAM-1 (Homo sapiens) [3]): 1500 µM
Substance: LFA-1 (low affinity form) (from UniProt P20701)
